# Laboratory results reported in the nanobody polyreactivity screen of Harvey et al. (2022).
# Assay: yeast display, Sf9 membrane polyspecificity reagent, FACS + sequencing; frameworks hold sequencing errors
# In short: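 Polyreactivity labels are assigned by the sorting gate from which each nanobody was recovered. The gates were low and high (top ~1%), set on anti-HA fluorescence for expression and streptavidin fluorescence for reagent binding. Before sorting, galactose-induced (36–48 hours) yeast display cells were stained for 1 hour at 4 °C with 10% biotinylated, detergent-solubilized Sf9 membrane reagent.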
row,Sequence,polyreactivity (PSR sort gate)
1,QVQLVESGGGLVQAGGSLRLSCAATGIKFDGYAMGWYRQEPRKERELVAGITIGDITYYADSVKGRFTISRDNAKNTVYLQMNSLKPEDTAVYYCADDCYYYQTAYDYWGQGTQVTVSS,low polyreactivity
2,QVQLVESGGGLVQAGGSLRLSCAATGINITSNTMGWYRLAPGKEREFVASINWNGSSTYADSVKGRFTISRDNAKNTVYLQMNSLKPEDTAVYYCNADYNRNSVQFSLYDYWGQGTQVTVSS,low polyreactivity
3,QVQLVESGGGLVQAGGSLRLSCAATGITFVYNAMGWYRQAPGKERELVAAISWSGTSTYYADSVKGRFTISRDNAKNTVYLQMNSLKPEDTAVYDCSAQSGYPPYGYYYWGQGTQVTVSS,low polyreactivity
4,QVQLVESGGGLVQAGGSLRLSCAATGITFYPNGMGWYRPAPGKEREFVAAITSSGGSTYYADSVKGRFTISRDNAKNSVYLQMNSLKPEDTAVYYCAAQYYPISYYGYGYWGQGTQVTVSS,low polyreactivity
5,QVQLVESGGGLVQAGGSLRLSCAATGLTFSTNTMGWYRQAPGKEREFVAAITARGGRTYYADSVKGRFTISRDNAKNTVYLQMNCLKPEDTAVYYCAANAYTYYARIGFDYWGQGTQVTVSS,high polyreactivity
6,QVQLVESGGGLVQAGGSLRLSCAATGRIFIAYAMGWYRQAPGKEREFVAAISSGGGSTYYADSVKGRFTISRDNAKNTVYLQMNSLKPEDTAVYYCGAWTLYWSHTTWSYDYWGQGTQGTVSS,low polyreactivity
7,QVQLVESGGGLVQAGGSLRLSCAATGRIFKTYAMGWYRQAPGKERELVAAISWTVVSTHYADSVKGRFTISRDNAKNTVYLQMNSLKPEDTAVYYCNADTPLRHRTWNRKVTDFEYDYWGQGTQVTVSS,low polyreactivity
8,QVQLVESGGGLVQAGGSLRLSCAATGRIFRVYAMGWYRQAPGKVRELVAAISSGGSTNYADSVKGGFTISRDNAKNTVYLQMKSLKPEDTAVYYCAADYWYRLFWYYGAPLDYWGQGTQVTVSS,low polyreactivity
9,QVQLVESGGGLVQAGGSLRLSCAATGRIFTYYAMGWYRQAPGKERELVAGISGSGTSTYYADSVKARFTISRDNAKNTVDLQINSLKPEDTAVYYSAADVFRDDVWLDYWGQGTQVTVSS,low polyreactivity
10,QVQLVESGGGLVQAGGSLRLSCAATGRIFYSNAMGWYRQAPGKERELVAVIRRTGSTYYADSVKGRFTISRDNAKHTVYLQMNSLKPEDTAVYYCATRIPYGRGGNRYDYWGQGTQVTVSS,low polyreactivity
11,QVQLVESGGGLVQAGGSLRLSCAATGRPSTSMLWDGIDRRLGKKGSSLTYYADSVKGRFTISRDNAKNTVYLQMNCLKPEDTAVYYCNKRRRWDNYGYRYGYWGQGTQVTVSS,low polyreactivity
12,QVQLVESGGGLVQAGGSLRLSCAATGRSFVHKAMGWYRQAPGKERELVAAISRGGSTYYADSVKGRFTISRDNAKNTVYLQMNSMKPEDTAVYYCAKERRYTGRRSYEFNYWGQGTHVTVSS,low polyreactivity
13,QVQLVESGGGLVQAGGSLRLSCAATGRSFVLNAMGWYRQAAGKERELVATINYSGSSTYYADSVKGRFTISRDNAKNTVYLQMNSLKPEDTAVYYCNRDVPYRLVYYANYYWGHGTQVTVSS,low polyreactivity
14,QVQLVESGGGLVQAGGSLRLSCAATGRTFYVNAMGWYRQAPGLEREFVARITSGGSTYYADSVKGRFTISPDKAKNTVYVQKNSLKPEDTAVYYCAADYVSLSVFSYCAWYDYWGQGTQVTVSS,low polyreactivity
15,QVQLVESGGGLVQAGGSLRLSCAATGRTFYWNAMGWYRQAPGKERELVAAIDSSGGSTYYADSVKGRFTISRDNAKNTVYLQMNSLKPEDTAVYYCNKDYPTYDYDYWGQGTQVTVSS,low polyreactivity
16,QVQLVESGGGLVQAGGSLRLSCAATGSIFQSYAMGWYRQAPGKERELVAAITARGTSTYYADSVKGRFTISRDNAKNTVYLQMNSLKPEETAVYYCNTDRSRSPGDVESPSDIKRDYWGQGTQVTVSS,low polyreactivity

row,Sequence,polyreactivity (PSR sort gate)
1,QVQLVESGGGLVQAGGSLRLSCAATGSIFRRYAMGWYGQAPGKERELVAAISWSGGSTYYADSVKGRFTISRDNAKNTVYLQMNSLKPEDTAVYYCAARHRQQKLDYWGQGTQVTVSS,high polyreactivity
2,QVQLVESGGGLVQAGGSLRLSCAATGSIFYFNAMGWYRKAPGKERELVADISGSGGSTYYADSVKGRFTISRDNAKNTVYLQMNSLKPEDTAVYYCAARLYLHSWWYYAYDYWGQGTQVTVSS,high polyreactivity
3,QVQLVESGGGLVQAGGSLRLSCAATGSIIVYNTMGWYRQAPGKERELVAAITVRDDSTYYADSVKGRFTISRDNAKNTVYLQMNSLKPEDTAVYYCNARGNFLIGRDYWGQGTQVTVSS,low polyreactivity
4,QVQLVESGGGLVQAGGSLRLSCAATGSIYSYAMGWNRQAPGKERELVAAISRSGGRTYYADSVKGRFTISRDNAKNTVYLQMNSLKPEDTAVYYCAADGYSAKYYPGGDYWGQGTQVTVSS,high polyreactivity
5,QVQLVESGGGLVQAGGSLRLSCAATGSTFYQYALGWYRQAPGKERELVAAISSRGTSTYYADSVKGRFTISRDNAKNTVYLQMNSLKPEDTAVYYCATEYTNWHRTWSLQTGGYGYWGQGTQGTVSS,high polyreactivity
6,QVQLVESGGGLVQAGGSLRLSCAATRRIFRRNPMGWYIQAPGKERELVATISANGGSTYYADSVKGRFTISRDNAKNTVYLQMNSLKPEATAVYYCAAQGWSWYWYQKIYYWGQGTQVTVSS,high polyreactivity
7,QVQLVESGGGLVQAGGSLRLSCAATRSTSSKYAMGWYRQAPGKERELVAAITRSGGRTYYAVSVMGRFTISRDYAKNTVYLQMNSLKPEDTAVYYCAAAGVYWEFDYWGQGTQVTVSS,high polyreactivity
8,QVQLVESGGGLVQAGGSLRLSCAAYGFIFKKYAMGWYRQAPGKERELVAAISGSSTRTYYADSVKGRFTISRDNAKKTVYLQMHSLKPEDTAVYYCVGRFYERDYWGQGTQVTVSS,high polyreactivity
9,QVQLVESGGGLVQAGGSLRLSCAAYGFTCPLNAMGWYRQAPGKERELVAAISGSSGSTYYADSVKGRFTISRDNAKNTVYLQMNSLKPEDTAVYYCAKKYAWRYYYWGQGTQVTVSS,high polyreactivity
10,QVQLVESGGGLVQAGGSLRLSCAAYGFTFGVYALGWYRQAPGKERELVAAISRIGGRTYYADSLKGRYTISRDNAKNTVYVQMNSLKPEDTAVYYCAESPRQGMYYWGQGTQVTVSS,high polyreactivity
11,QVQLVESGGGLVQAGGSLRLSCAAYGIIFTWYVMGWYRQAPGKERELVAAISASGASTYYADSVKGRFTISRDNAKNTVYLQMNSLKPEDTAVYYCAARYGWYPVRQPRPGGDYWGQGTQVTVSS,high polyreactivity
12,QVQLVESGGGLVQAGGSLRLSCAAYGRIFAYYAMGWYRQAPGKERELVAAISSGGTTNYADSVKGRFTISRDNAKNTVYLQMNSLKPEDTAVYYCNADGWRRSRQYYYWGQGTQVTVSS,low polyreactivity
13,QVQLVESGGGLVQAGGSLRLSCAAYGRIFGVYAMGWYRPAPGKERELVAAIERRGGTTYYADSVKGRITISRDMAKNTVYLQLNSLKPEDTAVYYCATGSIAAGHYAYNYWGQGTQVTVSS,high polyreactivity
14,QVQLVESGGGLVQAGGSLRLSCAAYGRIFLLYAMGWYRQAPGKERELVAGISIGGSTNYADSVKGRFTISRDNAKNTVYVQMNSLKPEDTAVYYCNAKRYFASRKNGYYYWGQGTQVTVSS,high polyreactivity
15,QVQLVESGGGLVQAGGSLRLSCAAYGRIFTINAMGWYRQAPGKERELVASIRSTGGSTYYADSVKGRFTISRDNAKNTVYLQMNSLKPEDTAVYYCAADGGVAWGYGYWGQGTQVTVSS,low polyreactivity
